Several values for one entry are separate records, joined by “and”; a condition that tells them apart may be missing. Equal values may be shown once.
How the values were obtained:
[1] = molecular target: NfsB with C-terminal encapsulin localization sequence (cargo of Enc{NfsB}) (E. coli | M. smegmatis)
[2] = molecular target: T1, encapsulin from Mycobacterium smegmatis (UniProt ID: I7G8Y9), C-terminal Strep-tag (Mycobacterium smegmatis mc2 155); assay: cryo-EM structure; same data set of purified Enc{tdNfsB}; the shell was subtracted from the particles, 2-D classification and low-resolution 3-D reconstruction of the interior; cargo and shell co-expressed in E. coli
[3] = molecular target: T1, encapsulin from Mycobacterium smegmatis; assay: SDS-PAGE gel densitometry of the co-purified complex; Enc{tdNfsB} at 500 ug/mL on a 15% gel, Coomassie; calibration curves of Enc and tdNfsB; molar ratio of tdNfsB (52.3 kDa) to Enc shell (1804.2 kDa); repeated twice

conversion of caged-hydroxy-CBT after 60 min by Enc{NfsB} (coupled luciferase assay), against 50% for free NfsB and tdNfsB and a comparable conversion for Enc{tdNfsB} [1]	stoichiometry N (tdNfsB per capsid) [2]	stoichiometry N (tdNfsB units per shell) [3]	Substance
10%			NfsB with C-terminal encapsulin localization sequence (cargo of Enc{NfsB}) (enzyme)
	6	10 and 13	tandem NfsB with C-terminal encapsulin localization sequence (cargo of Enc{tdNfsB}) (enzyme)

Reference: publication PMC11532998
